Data reported in paper PMC5109294, “NANOG reprograms prostate cancer cells to castration resistance via dynamically repressing and engaging the AR/FOXA1 signaling axis”.

Target: T1, FOXA1 (Homo sapiens, UniProt P55317 1-472)
T1 sequence: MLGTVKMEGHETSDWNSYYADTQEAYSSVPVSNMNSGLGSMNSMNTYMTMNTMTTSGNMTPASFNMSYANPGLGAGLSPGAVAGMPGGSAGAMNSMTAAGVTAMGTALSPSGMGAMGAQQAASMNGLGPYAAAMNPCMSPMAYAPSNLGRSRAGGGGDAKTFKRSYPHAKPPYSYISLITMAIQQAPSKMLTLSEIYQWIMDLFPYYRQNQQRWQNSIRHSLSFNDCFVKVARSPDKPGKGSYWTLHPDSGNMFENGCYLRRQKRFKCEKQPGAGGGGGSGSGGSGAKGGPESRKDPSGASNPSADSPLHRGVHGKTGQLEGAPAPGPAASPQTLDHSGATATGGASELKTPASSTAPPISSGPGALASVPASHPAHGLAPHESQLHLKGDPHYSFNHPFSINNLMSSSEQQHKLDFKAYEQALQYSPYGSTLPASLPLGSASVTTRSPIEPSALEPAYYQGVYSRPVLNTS
Assay: EMSA; 100 ng protein; competed by 300x unlabeled probe; weaker than NP8 at 1:1; LightShift Chemiluminescent EMSA kit; probe annealed in 20 mM Tris-HCl pH 7.5, 150 mM NaCl; 4-20% native gel, 0.5X TBE; binding buffer and temperature not stated
Conditions: protein: recombinant; tags: GST (pGEX-6p-1); label: biotin (both strands); blunt; some single-stranded primer remains after annealing

B1: FOXA1 motif probe, UBE2C gene promoter (dsDNA)
DNA 1: CTTAGTGTTTATTTCAAGCT
DNA 2: AGCTTGAAATAAACACTAAG
B1: binds.
